B1: Pikp-HMA domain made in Sf9 cells for crystallisation (domain or fragment, rice (Oryza sativa), UniProt E9KPB5 186-258, looked up)
chain: GLKQKIVIKVAMEGNNCRSKAMALVASTGGVDSVALVGDLRDKIEVVGYGIDPIKLISALRKKVGDAELLQVS
notes: also called Pikp1-HMA; not shown: 6xHis+SUMO, N-terminal, cleaved
B2: Pikp-HMA domain (HMA integrated domain of the rice NLR Pikp-1) (domain or fragment)
chain: B1 chain
notes: also called Pikp1-HMA; Pikp-1 HMA; not shown: 6xHis+SUMO, N-terminal, cleaved

Experiments:
[1] = molecular target: the molecule itself; assay: crystal structure; Pikp-HMA alone; 0.1 M MIB buffer pH 5.0, 25% PEG 1500; dimer in the crystal
[2] = molecular target: AVR-PikD with non-cleavable C-terminal 6xHis tag (pOPINE) (Magnaporthe oryzae, UniProt C4B8B8 22-113); assay: SPR; Biacore T200, 25°C, multi-cycle kinetics; […]; 50 mM HEPES pH 7.5, 150 mM NaCl, 0.1% Tween 20; […]; details: both partners purified

Binder | stoichiometry N [1] | Kd [2] [nM]
B1 | 2 | 
B2 |  | 31 ± 2

Reference: article PMC4547098 (eLife, 2015)
